Experimental data: paper PMC9482650, “Quantitative fragmentomics allow affinity mapping of interactomes” (Nature Communications, 2022)

Experiments:
Experiment in all cases: holdup assay
Set-up in all cases: key: below the threshold = too weak to quantify, mostly under pKd 3.1 to 4
RAPGEF6, Q8TEU7 = target: T1, RAPGEF6, Q8TEU7
T1 sequence (Q8TEU7 525-625, limits assumed, looked up): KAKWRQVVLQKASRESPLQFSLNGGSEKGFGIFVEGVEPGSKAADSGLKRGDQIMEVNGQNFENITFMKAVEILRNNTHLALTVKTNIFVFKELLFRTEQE

Inadl_2, Q8NI35 = target: Inadl_2, Q8NI35
NHERF4_4, Q86UT5 = target: NHERF4_4, Q86UT5
MPDZ_5, O75970 = target: T2, MPDZ_5, O75970
T2 sequence (O75970 695-796, limits assumed, looked up): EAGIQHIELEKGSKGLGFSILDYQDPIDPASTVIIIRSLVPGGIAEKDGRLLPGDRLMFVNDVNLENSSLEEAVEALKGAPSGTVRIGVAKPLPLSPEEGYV

MPP6, Q9NZW5 = target: T3, MPP6, Q9NZW5
T3 sequence (Q9NZW5 125-219, limits assumed, looked up): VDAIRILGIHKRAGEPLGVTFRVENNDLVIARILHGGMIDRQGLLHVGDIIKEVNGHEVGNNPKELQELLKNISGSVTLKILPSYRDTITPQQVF

ARHGEF12, Q9NZN5-2 = target: ARHGEF12, Q9NZN5-2
GIPC2, Q8TF65 = target: GIPC2, Q8TF65
MAGI1_2, Q96QZ7 = target: MAGI1_2, Q96QZ7
CARD11, Q9BXL7 = target: T4, CARD11, Q9BXL7
T4 sequence (Q9BXL7 662-765, limits assumed, looked up): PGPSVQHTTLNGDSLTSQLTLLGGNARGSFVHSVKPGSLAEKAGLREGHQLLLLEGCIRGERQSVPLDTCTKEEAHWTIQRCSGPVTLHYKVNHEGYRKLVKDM

PTPN13_1, Q12923 = target: T5, PTPN13_1, Q12923
T5 sequence (Q12923 1088-1188, limits assumed, looked up): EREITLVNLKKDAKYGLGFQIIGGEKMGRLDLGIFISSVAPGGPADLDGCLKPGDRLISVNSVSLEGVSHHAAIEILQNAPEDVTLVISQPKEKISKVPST

TJP1_3, Q07157 = target: TJP1_3, Q07157
Inadl_6, Q8NI35 = target: Inadl_6, Q8NI35
SIPA1L2, Q9P2F8 = target: T6, SIPA1L2, Q9P2F8
T6 sequence (Q9P2F8 945-1036, limits assumed, looked up): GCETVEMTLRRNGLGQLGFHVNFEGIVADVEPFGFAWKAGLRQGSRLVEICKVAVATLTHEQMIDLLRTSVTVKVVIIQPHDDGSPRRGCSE

Inadl_3, Q8NI35 = target: Inadl_3, Q8NI35
MPDZ_10, O75970 = target: T7, MPDZ_10, O75970
T7 sequence (O75970 1624-1722, limits assumed, looked up): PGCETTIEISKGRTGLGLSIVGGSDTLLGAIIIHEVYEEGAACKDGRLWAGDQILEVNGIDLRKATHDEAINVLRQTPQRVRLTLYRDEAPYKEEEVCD

DVL3, Q92997 = target: T8, DVL3, Q92997
T8 sequence (Q92997 244-331, limits assumed, looked up): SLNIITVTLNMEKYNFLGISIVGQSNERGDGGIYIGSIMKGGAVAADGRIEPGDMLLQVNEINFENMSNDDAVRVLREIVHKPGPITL

GRIP2_5, Q9C0E4 = target: GRIP2_5, Q9C0E4
LIN7C, Q9NUP9 = target: T9, LIN7C, Q9NUP9
T9 sequence (Q9NUP9 88-185, limits assumed, looked up): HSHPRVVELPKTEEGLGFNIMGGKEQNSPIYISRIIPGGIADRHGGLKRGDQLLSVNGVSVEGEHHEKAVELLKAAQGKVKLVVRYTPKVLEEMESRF

RADIL, Q96JH8 = target: T10, RADIL, Q96JH8
T10 sequence (Q96JH8 971-1071, limits assumed, looked up): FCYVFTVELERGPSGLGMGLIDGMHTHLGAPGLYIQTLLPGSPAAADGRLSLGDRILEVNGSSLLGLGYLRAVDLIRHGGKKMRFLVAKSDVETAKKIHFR

IL16_4, Q14005 = target: IL16_4, Q14005
ARHGEF11, O15085 = target: T11, ARHGEF11, O15085
T11 sequence (O15085 42-136, limits assumed, looked up): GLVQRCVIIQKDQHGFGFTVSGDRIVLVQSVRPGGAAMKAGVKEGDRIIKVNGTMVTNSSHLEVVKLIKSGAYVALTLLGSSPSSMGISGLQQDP

HTRA2, O43464 = target: HTRA2, O43464
PTPN3, P26045 = target: PTPN3, P26045
PDLIM1, O00151 = target: PDLIM1, O00151
ARHGAP21, Q5T5U3 = target: T12, ARHGAP21, Q5T5U3
T12 sequence (Q5T5U3 45-169, limits assumed, looked up): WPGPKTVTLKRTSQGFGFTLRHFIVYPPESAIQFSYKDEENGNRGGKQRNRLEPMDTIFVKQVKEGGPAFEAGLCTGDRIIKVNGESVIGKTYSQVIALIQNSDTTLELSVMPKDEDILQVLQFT

[1] = plain residues with an end cap or a label only (N-terminal biotin on a linker: ttds)
[2] = plain residues with an end cap or a label only (N-terminal biotin on a linker: ahx)
[3] = plain residues with an end cap or a label only (N-terminal biotin on a linker: gsgsgs; C-terminal amide)

Inadl_6, Q8NI35, sequence (Q8NI35 1058-1167): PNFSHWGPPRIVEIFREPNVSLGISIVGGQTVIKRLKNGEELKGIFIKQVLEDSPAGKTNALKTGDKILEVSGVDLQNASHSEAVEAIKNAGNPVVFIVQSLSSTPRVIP
Inadl_3, Q8NI35, sequence (Q8NI35 359-469): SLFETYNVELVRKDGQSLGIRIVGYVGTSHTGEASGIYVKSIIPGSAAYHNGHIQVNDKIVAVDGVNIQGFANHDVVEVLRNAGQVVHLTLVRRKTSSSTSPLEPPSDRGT
NHERF4_4, Q86UT5, sequence (Q86UT5 464-550): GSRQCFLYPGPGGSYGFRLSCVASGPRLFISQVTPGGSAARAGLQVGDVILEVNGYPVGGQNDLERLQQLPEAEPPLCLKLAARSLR
MAGI1_2, Q96QZ7, sequence (Q96QZ7 456-580): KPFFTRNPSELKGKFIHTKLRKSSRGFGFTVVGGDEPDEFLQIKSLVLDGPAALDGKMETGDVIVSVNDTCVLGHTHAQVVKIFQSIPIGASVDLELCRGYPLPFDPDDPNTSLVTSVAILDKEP
GRIP2_5, Q9C0E4, sequence (Q9C0E4 544-642): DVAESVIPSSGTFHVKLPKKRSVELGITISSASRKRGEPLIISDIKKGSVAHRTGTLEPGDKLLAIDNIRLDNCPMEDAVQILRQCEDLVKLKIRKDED
PDLIM1, O00151, sequence (O00151 1-87): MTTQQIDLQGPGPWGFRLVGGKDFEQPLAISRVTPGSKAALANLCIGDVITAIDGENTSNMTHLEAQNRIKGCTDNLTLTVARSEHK
PTPN3, P26045, sequence (P26045 505-587): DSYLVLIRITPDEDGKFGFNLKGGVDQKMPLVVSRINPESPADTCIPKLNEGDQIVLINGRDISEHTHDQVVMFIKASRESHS
Inadl_2, Q8NI35, sequence (Q8NI35 238-335): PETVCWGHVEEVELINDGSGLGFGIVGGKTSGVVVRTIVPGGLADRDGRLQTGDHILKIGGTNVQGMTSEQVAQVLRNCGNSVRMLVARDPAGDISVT
TJP1_3, Q07157, sequence (Q07157 416-512): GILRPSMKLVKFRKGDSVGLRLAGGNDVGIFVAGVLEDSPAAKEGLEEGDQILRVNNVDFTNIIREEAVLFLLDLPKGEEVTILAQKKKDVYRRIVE
GIPC2, Q8TF65, sequence (Q8TF65 112-203): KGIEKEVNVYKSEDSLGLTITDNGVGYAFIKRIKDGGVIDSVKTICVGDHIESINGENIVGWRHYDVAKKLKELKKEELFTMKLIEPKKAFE
ARHGEF12, Q9NZN5-2, sequence (Q9NZN5 other isoform, or with tags, fused parts or gaps): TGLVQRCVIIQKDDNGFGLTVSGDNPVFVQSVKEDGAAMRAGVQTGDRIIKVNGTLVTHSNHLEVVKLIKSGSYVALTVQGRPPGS
HTRA2, O43464, sequence (O43464 355-458): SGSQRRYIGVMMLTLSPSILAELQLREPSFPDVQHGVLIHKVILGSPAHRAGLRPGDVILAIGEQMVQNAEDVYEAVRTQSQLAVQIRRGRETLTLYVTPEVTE
IL16_4, Q14005, sequence (Q14005 1229-1329): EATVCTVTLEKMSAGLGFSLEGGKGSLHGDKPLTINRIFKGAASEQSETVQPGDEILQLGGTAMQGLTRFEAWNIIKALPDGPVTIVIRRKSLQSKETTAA

B1: DOCK4, Q8N1I0 (peptide)
chain: RPLPRKVSQL
pKd (RAPGEF6, Q8TEU7; [1]): below the threshold | pKd (Inadl_2, Q8NI35; [1]): below the threshold | pKd (NHERF4_4, Q86UT5; [1]): below the threshold | pKd (MPDZ_5, O75970; [1]): below the threshold | pKd (MPP6, Q9NZW5; [1]): below the threshold | pKd (ARHGEF12, Q9NZN5-2; [1]): 4.62 | pKd (GIPC2, Q8TF65; [1]): below the threshold | pKd (MAGI1_2, Q96QZ7; [1]): 4.51 | pKd (CARD11, Q9BXL7; [1]): below the threshold | pKd (PTPN13_1, Q12923; [1]): below the threshold | pKd (TJP1_3, Q07157; [1]): below the threshold | pKd (Inadl_6, Q8NI35; [1]): below the threshold | pKd (SIPA1L2, Q9P2F8; [1]): below the threshold | pKd (Inadl_3, Q8NI35; [1]): below the threshold | pKd (MPDZ_10, O75970; [1]): below the threshold | pKd (DVL3, Q92997; [1]): below the threshold | pKd (GRIP2_5, Q9C0E4; [1]): below the threshold | pKd (LIN7C, Q9NUP9; [1]): below the threshold | pKd (RADIL, Q96JH8; [1]): below the threshold | pKd (IL16_4, Q14005; [1]): below the threshold | pKd (ARHGEF11, O15085; [1]): 3.62 | pKd (HTRA2, O43464; [1]): below the threshold | pKd (PTPN3, P26045; [1]): 4.73 | pKd (PDLIM1, O00151; [1]): below the threshold | pKd (ARHGAP21, Q5T5U3; [1]): below the threshold

B2: HPV49-L2, P36762 (peptide)
chain: RRRKRKRTYL
pKd (RAPGEF6, Q8TEU7; [2]): below the threshold | pKd (Inadl_2, Q8NI35; [2]): below the threshold | pKd (NHERF4_4, Q86UT5; [2]): 3.53 | pKd (MPDZ_5, O75970; [2]): below the threshold | pKd (MPP6, Q9NZW5; [2]): below the threshold | pKd (ARHGEF12, Q9NZN5-2; [2]): 4.68 | pKd (GIPC2, Q8TF65; [2]): below the threshold | pKd (MAGI1_2, Q96QZ7; [2]): 5.71 | pKd (CARD11, Q9BXL7; [2]): below the threshold | pKd (PTPN13_1, Q12923; [2]): below the threshold | pKd (TJP1_3, Q07157; [2]): below the threshold | pKd (Inadl_6, Q8NI35; [2]): below the threshold | pKd (SIPA1L2, Q9P2F8; [2]): below the threshold | pKd (Inadl_3, Q8NI35; [2]): 3.72 | pKd (MPDZ_10, O75970; [2]): 3.94 | pKd (DVL3, Q92997; [2]): 3.57 | pKd (GRIP2_5, Q9C0E4; [2]): below the threshold | pKd (LIN7C, Q9NUP9; [2]): below the threshold | pKd (RADIL, Q96JH8; [2]): below the threshold | pKd (IL16_4, Q14005; [2]): below the threshold | pKd (ARHGEF11, O15085; [2]): 4.01 | pKd (HTRA2, O43464; [2]): 3.49 | pKd (PTPN3, P26045; [2]): 3.72 | pKd (PDLIM1, O00151; [2]): 3.52 | pKd (ARHGAP21, Q5T5U3; [2]): 3.6

B3: PSCDBP, O60759 (peptide)
chain: RAVEEEESRF
pKd (RAPGEF6, Q8TEU7; [2]): below the threshold | pKd (Inadl_2, Q8NI35; [2]): below the threshold | pKd (NHERF4_4, Q86UT5; [2]): below the threshold | pKd (MPDZ_5, O75970; [2]): below the threshold | pKd (MPP6, Q9NZW5; [2]): below the threshold | pKd (ARHGEF12, Q9NZN5-2; [2]): below the threshold | pKd (GIPC2, Q8TF65; [2]): below the threshold | pKd (MAGI1_2, Q96QZ7; [2]): below the threshold | pKd (CARD11, Q9BXL7; [2]): below the threshold | pKd (PTPN13_1, Q12923; [2]): below the threshold | pKd (TJP1_3, Q07157; [2]): below the threshold | pKd (Inadl_6, Q8NI35; [2]): below the threshold | pKd (SIPA1L2, Q9P2F8; [2]): below the threshold | pKd (Inadl_3, Q8NI35; [2]): below the threshold | pKd (MPDZ_10, O75970; [2]): below the threshold | pKd (DVL3, Q92997; [2]): below the threshold | pKd (GRIP2_5, Q9C0E4; [2]): below the threshold | pKd (LIN7C, Q9NUP9; [2]): below the threshold | pKd (RADIL, Q96JH8; [2]): below the threshold | pKd (IL16_4, Q14005; [2]): below the threshold | pKd (ARHGEF11, O15085; [2]): below the threshold | pKd (HTRA2, O43464; [2]): below the threshold | pKd (PTPN3, P26045; [2]): 3.98 | pKd (PDLIM1, O00151; [2]): below the threshold | pKd (ARHGAP21, Q5T5U3; [2]): below the threshold

B4: SLC2A1, P11166 (peptide)
chain: FHPLGADSQV
pKd (RAPGEF6, Q8TEU7; [1]): below the threshold | pKd (Inadl_2, Q8NI35; [1]): below the threshold | pKd (NHERF4_4, Q86UT5; [1]): below the threshold | pKd (MPDZ_5, O75970; [1]): below the threshold | pKd (MPP6, Q9NZW5; [1]): below the threshold | pKd (ARHGEF12, Q9NZN5-2; [1]): below the threshold | pKd (GIPC2, Q8TF65; [1]): 3.5 | pKd (MAGI1_2, Q96QZ7; [1]): below the threshold | pKd (CARD11, Q9BXL7; [1]): below the threshold | pKd (PTPN13_1, Q12923; [1]): below the threshold | pKd (TJP1_3, Q07157; [1]): below the threshold | pKd (Inadl_6, Q8NI35; [1]): below the threshold | pKd (SIPA1L2, Q9P2F8; [1]): below the threshold | pKd (Inadl_3, Q8NI35; [1]): below the threshold | pKd (MPDZ_10, O75970; [1]): below the threshold | pKd (DVL3, Q92997; [1]): below the threshold | pKd (GRIP2_5, Q9C0E4; [1]): below the threshold | pKd (LIN7C, Q9NUP9; [1]): below the threshold | pKd (RADIL, Q96JH8; [1]): below the threshold | pKd (IL16_4, Q14005; [1]): below the threshold | pKd (ARHGEF11, O15085; [1]): below the threshold | pKd (HTRA2, O43464; [1]): below the threshold | pKd (PTPN3, P26045; [1]): 4.1 | pKd (PDLIM1, O00151; [1]): below the threshold | pKd (ARHGAP21, Q5T5U3; [1]): below the threshold

B5: MLLT4_int, P55196 (peptide)
chain: YGIVQETTFDLGGDIH
pKd (RAPGEF6, Q8TEU7; [3]): below the threshold | pKd (Inadl_2, Q8NI35; [3]): below the threshold | pKd (NHERF4_4, Q86UT5; [3]): 3.84 | pKd (MPDZ_5, O75970; [3]): below the threshold | pKd (MPP6, Q9NZW5; [3]): below the threshold | pKd (ARHGEF12, Q9NZN5-2; [3]): below the threshold | pKd (GIPC2, Q8TF65; [3]): below the threshold | pKd (MAGI1_2, Q96QZ7; [3]): below the threshold | pKd (CARD11, Q9BXL7; [3]): below the threshold | pKd (PTPN13_1, Q12923; [3]): below the threshold | pKd (TJP1_3, Q07157; [3]): below the threshold | pKd (Inadl_6, Q8NI35; [3]): below the threshold | pKd (SIPA1L2, Q9P2F8; [3]): below the threshold | pKd (Inadl_3, Q8NI35; [3]): below the threshold | pKd (MPDZ_10, O75970; [3]): below the threshold | pKd (DVL3, Q92997; [3]): below the threshold | pKd (GRIP2_5, Q9C0E4; [3]): below the threshold | pKd (LIN7C, Q9NUP9; [3]): 3.85 | pKd (RADIL, Q96JH8; [3]): below the threshold | pKd (IL16_4, Q14005; [3]): below the threshold | pKd (ARHGEF11, O15085; [3]): below the threshold | pKd (HTRA2, O43464; [3]): below the threshold | pKd (PTPN3, P26045; [3]): 3.88 | pKd (PDLIM1, O00151; [3]): below the threshold | pKd (ARHGAP21, Q5T5U3; [3]): below the threshold
